Reference: publication doi:10.1101/2024.10.14.618219 (bioRxiv, 2024)

Key:
Assay in all cases: single-molecule TIRF co-localization
Kif3A-Kif3B^ΔC114 = Kif3A-Kif3B^ΔC114 (human, UniProt Q9Y496 1-699; O15066 1-633, SNAPf tag labeled with Alexa 647)
Kif3A-Kif3B^ΔC90 = Kif3A-Kif3B^ΔC90 (human, UniProt Q9Y496 1-699; O15066 1-657, SNAPf tag labeled with Alexa 647)
Kif3A^ΔC89-Kif3B = Kif3A^ΔC89-Kif3B (human, UniProt Q9Y496 1-610; O15066 1-747, SNAPf tag labeled with Alexa 647)
Kif3A^ΔC89-Kif3B, sequence (Q9Y496 1-610, stated change not applied, chain 1 of 2): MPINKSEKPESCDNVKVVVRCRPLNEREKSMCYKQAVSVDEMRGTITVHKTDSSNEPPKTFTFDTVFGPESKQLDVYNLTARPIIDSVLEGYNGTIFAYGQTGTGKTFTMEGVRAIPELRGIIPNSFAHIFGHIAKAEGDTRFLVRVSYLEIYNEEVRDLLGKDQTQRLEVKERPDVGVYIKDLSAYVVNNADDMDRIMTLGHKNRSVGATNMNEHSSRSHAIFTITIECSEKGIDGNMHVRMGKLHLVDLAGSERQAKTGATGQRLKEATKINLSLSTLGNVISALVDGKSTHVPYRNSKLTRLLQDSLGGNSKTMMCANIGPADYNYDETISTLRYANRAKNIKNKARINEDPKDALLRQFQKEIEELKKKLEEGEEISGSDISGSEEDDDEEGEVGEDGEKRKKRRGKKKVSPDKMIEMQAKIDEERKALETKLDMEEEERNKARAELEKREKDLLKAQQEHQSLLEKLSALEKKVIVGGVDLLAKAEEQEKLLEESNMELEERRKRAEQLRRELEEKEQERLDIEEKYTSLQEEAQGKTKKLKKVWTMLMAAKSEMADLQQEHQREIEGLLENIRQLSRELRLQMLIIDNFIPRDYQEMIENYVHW
Kif3A^ΔC89-Kif3B, sequence (O15066 whole entry, stated change not applied, chain 2 of 2): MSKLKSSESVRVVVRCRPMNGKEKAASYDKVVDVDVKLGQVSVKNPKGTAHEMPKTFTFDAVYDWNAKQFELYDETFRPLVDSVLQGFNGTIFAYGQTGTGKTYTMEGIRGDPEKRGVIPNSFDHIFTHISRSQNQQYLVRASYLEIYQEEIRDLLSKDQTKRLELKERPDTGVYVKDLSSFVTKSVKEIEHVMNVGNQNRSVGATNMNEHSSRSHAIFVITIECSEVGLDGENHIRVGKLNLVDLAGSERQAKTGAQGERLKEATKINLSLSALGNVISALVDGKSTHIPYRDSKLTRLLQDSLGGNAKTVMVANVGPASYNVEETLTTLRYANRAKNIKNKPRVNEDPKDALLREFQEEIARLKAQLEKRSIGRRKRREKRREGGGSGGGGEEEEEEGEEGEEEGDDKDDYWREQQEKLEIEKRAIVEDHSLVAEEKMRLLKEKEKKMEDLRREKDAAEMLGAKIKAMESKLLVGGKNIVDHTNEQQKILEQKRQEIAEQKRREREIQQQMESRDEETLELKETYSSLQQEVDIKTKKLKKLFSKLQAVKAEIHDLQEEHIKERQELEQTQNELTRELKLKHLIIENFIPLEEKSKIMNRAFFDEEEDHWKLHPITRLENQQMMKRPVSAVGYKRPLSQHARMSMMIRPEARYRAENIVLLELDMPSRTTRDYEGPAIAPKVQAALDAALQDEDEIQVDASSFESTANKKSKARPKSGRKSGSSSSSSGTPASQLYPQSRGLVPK

Kif3A-Kif3B^ΔC90, sequence (Q9Y496 whole entry, stated change not applied, chain 1 of 2): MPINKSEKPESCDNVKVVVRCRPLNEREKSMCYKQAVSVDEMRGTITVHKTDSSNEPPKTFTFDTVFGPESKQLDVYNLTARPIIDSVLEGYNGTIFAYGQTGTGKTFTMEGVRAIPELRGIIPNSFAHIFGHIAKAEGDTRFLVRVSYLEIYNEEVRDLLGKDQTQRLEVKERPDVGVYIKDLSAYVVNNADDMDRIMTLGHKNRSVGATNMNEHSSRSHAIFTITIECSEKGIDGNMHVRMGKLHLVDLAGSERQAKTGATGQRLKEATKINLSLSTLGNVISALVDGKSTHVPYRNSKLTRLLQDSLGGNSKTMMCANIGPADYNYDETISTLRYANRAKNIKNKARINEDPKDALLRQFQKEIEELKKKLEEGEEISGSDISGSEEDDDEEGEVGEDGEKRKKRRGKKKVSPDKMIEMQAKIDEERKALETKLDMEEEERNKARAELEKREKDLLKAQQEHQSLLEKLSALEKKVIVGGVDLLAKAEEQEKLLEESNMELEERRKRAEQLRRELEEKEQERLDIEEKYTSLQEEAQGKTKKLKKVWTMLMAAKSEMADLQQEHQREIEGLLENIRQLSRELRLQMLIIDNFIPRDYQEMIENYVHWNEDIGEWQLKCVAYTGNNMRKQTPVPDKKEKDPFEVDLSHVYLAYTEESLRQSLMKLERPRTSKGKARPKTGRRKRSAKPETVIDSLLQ
Kif3A-Kif3B^ΔC90, sequence (O15066 1-657, stated change not applied, chain 2 of 2): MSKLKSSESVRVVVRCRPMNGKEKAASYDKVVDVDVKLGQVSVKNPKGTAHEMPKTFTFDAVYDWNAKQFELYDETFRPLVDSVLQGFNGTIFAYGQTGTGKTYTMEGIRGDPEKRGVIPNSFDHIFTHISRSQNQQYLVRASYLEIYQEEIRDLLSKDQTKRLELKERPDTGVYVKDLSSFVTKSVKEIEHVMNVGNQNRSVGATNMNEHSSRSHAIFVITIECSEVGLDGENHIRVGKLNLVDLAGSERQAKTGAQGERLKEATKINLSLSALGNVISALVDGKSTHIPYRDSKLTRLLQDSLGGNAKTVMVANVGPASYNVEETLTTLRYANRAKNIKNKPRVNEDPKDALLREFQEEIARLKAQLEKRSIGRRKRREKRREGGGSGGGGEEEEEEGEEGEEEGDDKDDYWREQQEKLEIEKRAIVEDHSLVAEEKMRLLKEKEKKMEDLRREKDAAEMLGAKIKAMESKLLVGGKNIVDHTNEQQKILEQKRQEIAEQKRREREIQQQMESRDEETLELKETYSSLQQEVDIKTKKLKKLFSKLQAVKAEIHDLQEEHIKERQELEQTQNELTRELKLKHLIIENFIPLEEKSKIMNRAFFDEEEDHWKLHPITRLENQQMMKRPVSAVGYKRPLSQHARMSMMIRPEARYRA
Kif3A-Kif3B^ΔC114, sequence (Q9Y496 whole entry, stated change not applied, chain 1 of 2): as the sequence (Q9Y496 whole entry, stated change not applied, chain 1 of 2) above
Kif3A-Kif3B^ΔC114, sequence (O15066 1-633, stated change not applied, chain 2 of 2): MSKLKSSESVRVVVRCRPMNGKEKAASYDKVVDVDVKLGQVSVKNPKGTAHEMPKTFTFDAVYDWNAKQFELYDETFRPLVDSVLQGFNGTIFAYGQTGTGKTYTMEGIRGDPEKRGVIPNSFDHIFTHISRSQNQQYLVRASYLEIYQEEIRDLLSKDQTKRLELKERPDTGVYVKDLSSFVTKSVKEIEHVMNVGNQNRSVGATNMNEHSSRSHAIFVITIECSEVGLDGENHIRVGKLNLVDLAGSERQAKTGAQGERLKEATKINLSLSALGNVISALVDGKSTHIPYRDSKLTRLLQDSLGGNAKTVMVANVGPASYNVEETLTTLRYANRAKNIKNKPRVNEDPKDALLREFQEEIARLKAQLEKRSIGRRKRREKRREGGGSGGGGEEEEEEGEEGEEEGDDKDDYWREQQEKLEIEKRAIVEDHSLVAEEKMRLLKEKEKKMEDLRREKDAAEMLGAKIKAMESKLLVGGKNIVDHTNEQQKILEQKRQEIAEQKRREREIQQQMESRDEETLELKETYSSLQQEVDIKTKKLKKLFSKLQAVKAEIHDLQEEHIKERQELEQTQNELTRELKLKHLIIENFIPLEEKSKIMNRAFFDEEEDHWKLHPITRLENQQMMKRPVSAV

- percent of Kif3AB molecules with Kap3 co-localized (Kif3A-Kif3B^ΔC114): 50%
- percent of Kif3AB molecules with Kap3 co-localized (Kif3A-Kif3B^ΔC90): 62%
- percent of Kif3AB molecules with Kap3 co-localized (Kif3A^ΔC89-Kif3B): 26%
B1: Kap3 (natural protein, human, UniProt Q92845 1-792, looked up)
chain: MQGEDARYLKRKVKGGNIDVHPSEKALIVHYEVEATILGEMGDPMLGERKECQKIIRLKSLNANTDITSLARKVVEECKLIHPSKLNEVEQLLYYLQNRRDSLSGKEKKEKSSKPKDPPPFEGMEIDEVANINDMDEYIELLYEDIPDKVRGSALILQLARNPDNLEELLLNETALGALARVLREDWKQSVELATNIIYIFFCFSSFSQFHGLITHYKIGALCMNIIDHELKRHELWQEELSKKKKAVDEDPENQTLRKDYEKTFKKYQGLVVKQEQLLRVALYLLLNLAEDTRTELKMRNKNIVHMLVKALDRDNFELLILVVSFLKKLSIFMENKNDMVEMDIVEKLVKMIPCEHEDLLNITLRLLLNLSFDTGLRNKMVQVGLLPKLTALLGNDNYKQIAMCVLYHISMDDRFKSMFAYTDCIPQLMKMLFECSDERIDLELISFCINLAANKRNVQLICEGNGLKMLMKRALKFKDPLLMKMIRNISQHDGPTKNLFIDYVGDLAAQISNDEEEEFVIECLGTLANLTIPDLDWELVLKEYKLVPYLKDKLKPGAAEDDLVLEVVIMIGTVSMDDSCAALLAKSGIIPALIELLNAQQEDDEFVCQIIYVFYQMVFHQATRDVIIKETQAPAYLIDLMHDKNNEIRKVCDNTLDIIAEYDEEWAKKIQSEKFRWHNSQWLEMVESRQMDESEQYLYGDDRIEPYIHEGDILERPDLFYNSDGLIASEGAISPDFFNDYHLQNGDVVGQHSFPGSLGMDGFGQPVGILGRPATAYGFRPDEPYYYGYGS
modifications: SNAPf tag labeled with TMR in the co-localization assay
